The values that follow come from patent US20250271431A1 (NEW ERA MABS, published 2025).

Values joined by “and” are separate entries in the source; they are usually repeats but may differ in a detail not shown here. Identical values can stand only once. Like-named read-outs stand apart in the source and are kept apart here.

Assay [1] has as its target T1, SARS-CoV-2 Spike protein-RBD-mFc (Acrobiosystem; SPD-C5259) (SARS-CoV-2; mouse, UniProt P0DTC2 319-541).
T1 construct: domain: RBD
In words: SPR (Biacore T200), […], kinetic fit 1:1 binding, […].

Assay [2] deals with T1, SARS-CoV-2 Spike protein-RBD-mFc …. The assay is described as above. The source holds these as a separate data set.
For assay [3] the target is unchanged.
Assay [4] concerns the target epitope sequence SEQ ID No 28 ([…]) (SARS-CoV-2). In words: RepliTope peptide microarray, Cy5 fluorescence.
Protocol: (§1) The peptide library consisted of 15-meric peptides representing overlapping peptide scans. […] Incubation took place for 1 hour at 30° C. Biotin-labeled secondary antibody (mouse-anti-camelid IgG) was added at 2 μg/mL and incubated for 1 hour. Detection was visualized using Cy5-labeled streptavidin at 0.1 μg/mL incubated for 1 hour. After washing and drying, the slides were scanned with a high-resolution laser scanner at 635 nm to obtain fluorescence intensity profiles. Resulting images were quantified to yield a mean pixel value for each peptide.
Assay [5] concerns the target epitope sequence SEQ ID No 39 ([…]) (SARS-CoV-2). In words: RepliTope peptide microarray, Cy5 fluorescence.
Protocol: as §1
Assay [6] has as its target epitope sequence SEQ ID No 30 ([…]) (SARS-CoV-2). Put plainly: RepliTope peptide microarray, Cy5 fluorescence.
Protocol: as §1
The target of assay [7] is epitope sequence SEQ ID No 21 ([…]) (SARS-CoV-2). In words: RepliTope peptide microarray, Cy5 fluorescence.
Protocol: as §1
Assay [8] addresses epitope sequence SEQ ID No 27 ([…]) (SARS-CoV-2). In words: RepliTope peptide microarray, Cy5 fluorescence.
Protocol: as §1
Assay [9] addresses epitope sequence SEQ ID No 25 ([…]) (SARS-CoV-2). In words: RepliTope peptide microarray, Cy5 fluorescence.
Protocol: as §1
The target in assay [10] is epitope sequence SEQ ID No 38 ([…]) (SARS-CoV-2). In words: RepliTope peptide microarray, Cy5 fluorescence.
Protocol: as §1
Assay [11] addresses epitope sequence SEQ ID No 36 ([…]) (SARS-CoV-2). Put plainly: RepliTope peptide microarray, Cy5 fluorescence.
Protocol: as §1
For assay [12], the target named is epitope sequence SEQ ID No 29 ([…]) (SARS-CoV-2). Put plainly: RepliTope peptide microarray, Cy5 fluorescence.
Protocol: as §1

B1: hcAb B10 (clone B10), camelid full length IgG2 heavy chain only antibody (antibody, V domains shown)
VH: DVQLQESGGGLVQPGGSLRLSCAASGDINTIGTMNWFRQAPGKGREFVALITSGGTTNYADSVKGRFTVSRDNAKNTVYLQMNSLKPEDTAVYHCYGADHYSDYWGQGTQVTVSS
notes: also called mAb B10
For B1, the equilibrium dissociation constant (Kd) (in general, the constant that tells how readily two partners part at equilibrium) in [1] was 0.397 nM; in assay [2], 0.372 nM and 0.385 nM; in assay [3], 0.39 nM. Besides, the off-rate (koff) (in general, a measure of how fast the partners let go of each other) is 0.000463 s⁻¹ in assay [1]; 0.000454 s⁻¹ and 0.000459 s⁻¹ in assay [2]. For the same molecule, the kon (in general, the rate constant with which the complex forms) in assay [1] is 1.17e+06 M⁻¹ s⁻¹; in assay [2], 1.22e+06 M⁻¹ s⁻¹ and 1.19e+06 M⁻¹ s⁻¹. For the same molecule, the average signal intensity in assay [4] amounted to 14000 mean pixel value; in assay [5] it was 15200 mean pixel value; in [6], 644 mean pixel value; in assay [7] it was 48600 mean pixel value; in assay [8], 14000 mean pixel value; in assay [9] it was 750 mean pixel value. In addition, the average signal intensity in assay [10] is 18100 mean pixel value; in [11] it was 800 mean pixel value; in assay [12], 353 mean pixel value.
